The source of these data is patent publication US20160272995A1, “MANIPULATION OF PLASMODESMAL CONNECTIVITY TO IMPROVE PLANT YIELD AND FITNESS” (UNIVERSITY OF DELAWARE, priority 2013, published 2016).

Test [1] has as its system Arabidopsis thaliana. In words: Vegetative growth, flowering and seed yield of plants. The format is in vivo. The settings on record: 22-20° C., 16/8 hours light/darkness. Here is the method: Wild type (WT) plants, plants overexpressing […]), and plants with a severe knock down of […] used as comparisons. (a) Whole plants at 10, 14, and 18 days post germination (dpg). Plants were grown at 22-20° C. with 50% humidity and with 16/8 hours light/darkness. (b) Leaves at 3 weeks post germination. Plants were grown at 24-22° C. with 70% humidity and with 16/8 hours light/darkness. […] Wild type (WT) plants, plants overexpressing PDLP5 (OX), and plants with a severe knock down of PDLP5 (KO) were used as comparisons. […] Seeds were germinated on plates, were transferred to soil after 1 week, and plants were grown at 22-20° C. with 16/8 hours light/darkness. […] Wild type (WT) plants and plants overexpressing […]) were used as comparisons. Plants were grown at 24-22° C. with 70% humidity and with 16/8 hours light/darkness. […] The sequence of the PCR product was confirmed followed by transformation of Top10 E. coli competent cells. […] Agrobacteria were transformed with the […]5 clone.

The next test relates to plasmodesmata (PD). The settings on record: Arabidopsis plants; cited from earlier work.
The subject of test [2] is lateral root primordia (LRP). In words: LRP progression after gravitropic stimulus. The format is in vivo, Arabidopsis thaliana. As to conditions: by 48 hpg. Here is the method: (A) Lateral root development in wild type (WT) plants, plants having a severe knock down of PDLP5 (pdlp5-1), and plants overexpressing PDLP5 (PDLPOE) expressing DR5:GUS. Arrowheads indicate tertiary roots. (B) Quantification of total lateral root numbers (both emerged and unemerged secondary [2°], tertiary [3°], and quaternary [4°] roots). n≧30 per seedling set. Bars, standard deviation. Stars, significance determined by student T-test (P<0.01). (C) A diagram depicting several stages of LRP emergence. (D) Percent distribution of LRP stages, recorded at root bend at indicated time points following gravistimulation at 3 dpg. n≧20 seedlings per set. […]
GUS solution (100 mM sodium phosphate buffer, pH 7.0, 10 mM EDTA, 0.5 mM each potassium ferrocyanide and potassium ferricyanide, 1.24 mM X-Gluc, and 0.1% Triton X-100) was vacuum-infiltrated into plant tissue for five minutes, then removed from vacuum and incubated in 37° C. for 3 to 12 hrs, followed by a series of ethanol washes. […] LRP were quantified by counting both the emerged LR and unemerged LR, as determined by DRS::GUS staining of the primordia, under a dissecting microscope (1.2× magnification). LRP stages were determined by examining ethanol-cleared, GUS-stained tissue using 40× water lens.

The subject of a further test is Pseudomonads. The settings on record: Arabidopsis plants; cited from earlier work.
Test [3] deals with Arabidopsis thaliana. Nature of the test: Drought test: 2 weeks water withdrawal, then rewatering. The format is in vivo. The settings on record: rewatering after 2 weeks water withdrawal. The procedure: All plant lines were grown for 2 weeks with water prior to the 2 week water withdrawal. (a) Plants having a severe knock down of PDLP5 (pdlp5-1) and PDLP5-m5 plants bolt faster than plants overexpressing PDLP5 (OX) and wild type (WT) plants. (b) Plants overexpressing PDLP5 (OX) revive 3 days post rewatering (DPR). (c) Plants overexpressing PDLP5 (OX) fully recover and 10 days post rewatering (DPR); wild type (WT) plants are dead, and PDLP5-m5 plants continue to survive.
(a) Plants overexpressing PDLP5 (OX), wild type (WT) plants, plants having a severe knock down of PDLP5 (pdlp5-1), and three different PDLP5-m5 plants (T3-4-2, T2-6, and T2-26) which were all grown a different number of days as required to reach same rosette size before water withdrawal. Plants having the same rosette size are referred to as “same day bolting samples.” (b) Same day bolting samples of plants overexpressing PDLP5 (OX), wild type (WT) plants, plants having a severe knock down of PDLP5 (pdlp5-1), and three different PDLP5-m5 plants (T3-4-2, T2-6, and T2-26) at the end of a 2 week water withdrawal. (c) Same day bolting samples of plants overexpressing PDLP5 (OX) and two different PDLP5-m5 plants (T3-4-2 and T2-26) recover fully 3 days post rewatering.
Transgenic T1 plants were selected on basta+plates and homozygous T2 lines were identified by segregation test on T3 plants. For the drought test, homozygous lines were grown in soil for the 2 weeks with watering followed by 2 weeks of water withdrawal. Tolerance to drought stress of the PDLP5-m5 was assessed by the plant growth or death upon resuming watering.
PDLP5-m5 plants were evaluated by exposing them to drought conditions. PDLP-m5 plants were grown under normal conditions with water, water was withdrawn for 2 weeks, and rewatering was commenced. Plants having a severe knock down of PDLP5 (pdlp5-1) and PDLP5-m5 plants bolt faster than plants overexpressing PDLP5 and wild type plants (FIG. 13A). […] The early bolting of the PDLP5-m5 plants appeared to affect plant revival. Therefore, the experiment was repeated using same day bolting samples. Briefly, plants having the same rosette size were used, regardless of the number of days required to achieve that rosette size (FIG. 14A).

The subject of test [4] is Nicotiana benthamiana leaves. In words: Transient expression via Agrobacteria-infiltration, extent of viral movement. As to conditions: transient expression in Nicotiana benthamiana leaves. It counts as in vivo. Here is the method:
(a) Schematics of PDLP5-m5, PDLP5-C, and PDLP5-2C mutants as created by overlapping PCR. (b) Transient expression of mutants in Nicotiana benthamiana leaves.
We also created mutants altering just two cysteines (“CC”, residues 288 and 289 of the C-terminal tail region) or a single cysteine (“C”, residue 298 of the C-terminal tail region) residues to A1a. The phenotypes of these partial mutants, as well as the PDLP5-OX, pldp5-1 and PDLP5-m5, were tested in transient expression in Nicotiana benthamiana leaves via Agrobacteria-infiltration, targeting the extent of viral movement for comparison.

For test [5] the following is noted: Arabidopsis plants; cited from earlier work.

B1: PDLP5OE: Wild-type A. thaliana PDLP5 protein (SEQ ID NO:4) constitutively overexpressed in plants under the 35S promoter (protein, listed as Arabidopsis thaliana)
chain: MIKTKTTSLLCFLLTAVILMNPSSSSPTDNYIYAVCSPAKFSPSSGYETNLNSLLSSFVTSTAQTRYANFTVPTGKPEPTVTVYGIYQCRGDLDPTACSTCVSSAVAQVGALCSNSYSGFLQMENCLIRYDNKSFLGVQDKTLILNKCGQPMEFNDQDALTKASDVIGSLGTGDGSYRTGGNGNVQGVAQCSGDLSTSQCQDCLSDAIGRLKSDCGMAQGGYVYLSKCYARFSVGGSHARQTPGPNFGHEGEKGNKDDNGVGKTLAIIIGIVTLIILLVVFLAFVGKCCRKLQDEKWCK
As to B1, the rosette diameter entry with Arabidopsis thaliana [1] was “reduced rosette diameter”. The “movement between cells reduced by” value with plasmodesmata (PD) is 70%. In addition, the LRP emergence result in test [2] is given as “none had yet emerged”. Besides, in the test with Pseudomonads, the immunity to infection result is listed as “innate immunity to Pseudomonads infection”. The outcome upon rewatering in the test on Arabidopsis thaliana [3] was “recovered after rewatering”. Further, in test [4], the “extent of viral movement” value was “delay in viral movement”. Further, the “total SA compared with the wild-type control” value in test [5] is 15 fold.
